Results taken from the Immune Epitope Database (IEDB).

How the values were obtained:
Test in all cases: IEDB peptide-MHC binding, purified MHC/competitive/radioactivity; filed as Kd, often an IC50 or EC50 that approximates it; ≥ and ≤ were set here for values at or beyond the usual limits of such assays
HLA-A*02:02 = molecular target: HLA-A*02:02
HLA-A*02:03 = molecular target: HLA-A*02:03
HLA-A*02:06 = molecular target: HLA-A*02:06
HLA-A*11:01 = conditions: source organism: Vaccinia virus WR
HLA-A*68:01 = conditions: source organism: Vaccinia virus WR
HLA-A*31:01 = conditions: source organism: Vaccinia virus WR
HLA-A*03:01 = conditions: source organism: Vaccinia virus WR
HLA-A*33:01 = conditions: source organism: Vaccinia virus WR
[1] = source organism: SARS coronavirus Tor2
[2] = source organism: Vaccinia virus WR
[3] = source organism: Dengue virus 2 Jamaica/1409/1983
[4] = source organism: Lymphocytic choriomeningitis virus (strain Armstrong)
[5] = source organism: Mammarenavirus guanaritoense
[6] = source organism: Vaccinia virus Copenhagen
[7] = source organism: Mammarenavirus brazilense

Sequence	Kd (HLA-A*02:02; [2])	Kd (HLA-A*02:03; [2])	Kd (HLA-A*02:06; [2])	also measured
ALVSGTATA	–	–	–	Kd (HLA-A*02:02; [1]): 4.63 nM; Kd (HLA-A*02:03; [1]): 8.1 nM; Kd (HLA-A*02:06; [1]): 269 nM
AQMGTLLIA	–	–	–	Kd (HLA-A*02:02; [1]): 64.5 nM; Kd (HLA-A*02:03; [1]): 1.55 nM; Kd (HLA-A*02:06; [1]): 0.442 nM
CTSEIQNVT	188 nM	5180 nM	10200 nM	–
CVRLNNPVIL	8560 nM	5400 nM	≥ 45100 nM	–
DLNRMPTDML	1250 nM	2190 nM	≥ 47500 nM	–
DQDTMLFASA	891 nM	663 nM	1720 nM	–
DQTHIKTIAV	2170 nM	390 nM	1000 nM	–
DTEFINKFL	7420 nM	≥ 42700 nM	≥ 77100 nM	–
DTMSIYIAVA	19.5 nM	23.7 nM	1480 nM	–
EAKTHFSTT	≥ 36600 nM	≥ 25100 nM	≥ 55300 nM	–
ETFPNVHEHI	8020 nM	6620 nM	≥ 69800 nM	–
FLQISRVNDL	5.18 nM	67.1 nM	583 nM	–
FMTATPPGAT	–	–	–	Kd (HLA-A*02:03; source organism: Dengue virus 4 Philippines/H241/1956): 29.4 nM
FTDCRTIDAI	9440 nM	12800 nM	751 nM	–
FTHTTAFFNT	17200 nM	10200 nM	51 nM	–
FVVNGHTCM	6640 nM	5900 nM	1810 nM	–
GLKIEEIEKV	14.9 nM	6.61 nM	198 nM	–
GLKSKTHAV	–	–	–	Kd (HLA-A*02:03; source organism: Homo sapiens): 1.58 nM
GMCCIITASI	–	–	–	Kd (HLA-A*02:03; [3]): 84.1 nM
HIGHHYIWI	2550 nM	899 nM	≥ 25300 nM	–
IAIFNNRNLA	3360 nM	1480 nM	890 nM	–
ILASFSAST	–	–	–	Kd (HLA-A*02:02; [1]): 1.62 nM; Kd (HLA-A*02:03; [1]): 5.27 nM; Kd (HLA-A*02:06; [1]): 457 nM
ITRLEVIGLT	2210 nM	219 nM	967 nM	–
IVILFIMFM	1860 nM	1680 nM	741 nM	–
KCMSAALKNL	–	–	–	Kd (HLA-A*02:02; [4]): 57.9 nM; Kd (HLA-A*02:03; [4]): 192 nM; Kd (HLA-A*02:06; [4]): 14000 nM
KLPTWLGAAI	103 nM	123 nM	295 nM	–

Sequence	Kd (HLA-A*02:02; [2])	Kd (HLA-A*02:03; [2])	Kd (HLA-A*02:06; [2])	also measured
KLTKDRKML	≥ 24500 nM	≥ 36400 nM	≥ 77100 nM	–
KNAGYLVGR	–	–	–	Kd (HLA-A*02:02; [5]): ≥ 45600 nM; Kd (HLA-A*02:03; [5]): ≥ 78100 nM; Kd (HLA-A*02:06; [5]): ≥ 77000 nM
KQLGQVMLLI	–	–	–	Kd (HLA-A*02:06; [3]): 11 nM
LLDEPLSPDT	8510 nM	10100 nM	7840 nM	–
LLTDTIESA	16.6 nM	10.5 nM	5.88 nM	–
LLVTLAILTA	–	–	–	Kd (HLA-A*02:02; [1]): 4.39 nM; Kd (HLA-A*02:03; [1]): 42.9 nM; Kd (HLA-A*02:06; [1]): 32.2 nM
LMDCIIFES	–	–	–	Kd (HLA-A*02:02; [4]): 30.1 nM; Kd (HLA-A*02:03; [4]): 825 nM; Kd (HLA-A*02:06; [4]): 300 nM
LQQNNSFII	11700 nM	5170 nM	423 nM	–
LSYSQTMLL	–	–	–	Kd (HLA-A*02:02; [4]): 2110 nM; Kd (HLA-A*02:03; [4]): 11300 nM; Kd (HLA-A*02:06; [4]): 3720 nM
LVFNSISARA	1270 nM	254 nM	702 nM	–
LVSKHWELT	12200 nM	14900 nM	≥ 77100 nM	–
MLDDFSAGA	68.4 nM	73.1 nM	114 nM	–
NIKISLNEI	1670 nM	31 nM	1500 nM	–
NLEELTTVFI	418 nM	6500 nM	12300 nM	–
NLFDIPLLT	–	–	–	Kd (HLA-A*02:02; [6]): 135 nM; Kd (HLA-A*02:03; [6]): 36.3 nM; Kd (HLA-A*02:06; [6]): 1540 nM
PLNEAIMAV	–	–	–	Kd (HLA-A*02:03; [3]): 18.3 nM
QLVKDESIQL	157 nM	130 nM	1810 nM	–
RARFIGGYIK	–	–	–	Kd (HLA-A*11:01): 16.8 nM; Kd (HLA-A*68:01): 92.9 nM; Kd (HLA-A*31:01): 59.4 nM; Kd (HLA-A*03:01): 629 nM; Kd (HLA-A*33:01): 11700 nM
RIVTVTTKDY	–	–	–	Kd (HLA-A*11:01): 600 nM; Kd (HLA-A*68:01): 1550 nM; Kd (HLA-A*31:01): 18300 nM; Kd (HLA-A*03:01): 427 nM; Kd (HLA-A*33:01): ≥ 70000 nM
RLAANAICSA	–	–	–	Kd (HLA-A*02:03; [3]): 127 nM
RLLKNMKQCT	≥ 46800 nM	3140 nM	11900 nM	–
RMPTDMLKL	950 nM	106 nM	678 nM	–
RSASGGVYL	–	–	–	Kd (HLA-A*02:02; [7]): 278 nM; Kd (HLA-A*02:03; [7]): 14500 nM; Kd (HLA-A*02:06; [7]): 13600 nM
RSTIFDIVSK	–	–	–	Kd (HLA-A*11:01): 1.97 nM; Kd (HLA-A*68:01): 79.2 nM; Kd (HLA-A*31:01): 222 nM; Kd (HLA-A*03:01): 81.3 nM; Kd (HLA-A*33:01): 6500 nM
RTFNEDLFR	–	–	–	Kd (HLA-A*11:01): 15.1 nM; Kd (HLA-A*68:01): 22.3 nM; Kd (HLA-A*31:01): 17.6 nM; Kd (HLA-A*03:01): 73.5 nM; Kd (HLA-A*33:01): 1570 nM
RTRLYDYFTR	–	–	–	Kd (HLA-A*11:01): 991 nM; Kd (HLA-A*68:01): 1450 nM; Kd (HLA-A*31:01): 0.7 nM; Kd (HLA-A*03:01): 6060 nM; Kd (HLA-A*33:01): 1630 nM
